Experimental data: patent US20160303245A1, “FATTY ACID DERIVATIVES OF DIMERIC INHIBITORS OF PSD-95” (UNIVERSITY OF COPENHAGEN, priority 2013, published 2016)

Tests used:
[1] = target: Human Serum Albumin (human) (UniProt P02768); assay: calculated from KD at 588 µM HSA (equation 2)
[2] = target: Human Serum Albumin (human) (UniProt P02768); assay: calculated from KD(HSA) at 150 µM HSA (equation 2)
[3] = target: Human Serum Albumin (human) (UniProt P02768); assay: Transil XL HSA binding kit (immobilized HSA), unbound compound by RP-HPLC

UCCB01-144 (peptide)
fb (%), fraction bound to HSA [1]: 65.3%
fu (%), fraction unbound [2]: 67.9%
Kd [3]: 318 µM
